# Target: T1, His-tagged CD40 antigen (human, UniProt P25942 21-193, limits assumed)
# T1 construct: Captured on an anti-His antibody on a CM5 chip; not shown: His tag
# Assay: SPR, Biacore T200, CM5 chip, His-tagged CD40 captured on anti-His antibody
# From the text: That is, the anti-His antibody was immobilized on the surface of the CM5 sensor chip by an amine coupling method. His-tagged CD40 antigen was captured by reacting the His-tagged CD40 antigen with the antibody and then the captured antigen was reacted with sensor chip coated with an anti-his antibody. The results were read using biocore T200 (GE Healthcare).
# T1 sequence (P25942 21-193 limits assumed): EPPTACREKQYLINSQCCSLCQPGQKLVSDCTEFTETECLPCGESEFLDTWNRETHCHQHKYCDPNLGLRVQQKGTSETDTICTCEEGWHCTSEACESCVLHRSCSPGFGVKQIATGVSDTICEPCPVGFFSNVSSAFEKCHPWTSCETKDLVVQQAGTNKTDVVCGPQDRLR
binder,measurement,value
"anti-CD40 antibody RM8G-1 (antibody, V domains shown, Mouse monoclonal antibody from hybridoma RM8G1 (KCLRF-BP-00336); also called RM RM8G-1; anti-CD40 RM8G-1) VH: LVQLKESGPGLVAPSQSLSITCTVSGFSLTDYGVGWIRQPPGKDLEWLGVMWGGGRTYYNAPLKSRLSISKDNSKSQVFLKMNSLQTDDTAMYYCVKTGQDYAVDYWGQGTSVTVSS VL: DIVLTQSPASLAVSLGQRATISCRASKSVSTSAYSYMHWYQQKPGQPPKLLIYLASNLESGVPARFSGSGSGTDFTLNIHPVEEEDAATYYCQHSWDLPYTFGGGTKLEIK",Kd,0.494 nM
same,koff,0.000234 s⁻¹
same,kon,474000 M⁻¹ s⁻¹

# Reference: patent publication US20200291123A1 (PB IMMUNE THERAPEUTICS, published 2020)
